The record followed here is the nanobody polyreactivity screen of Harvey et al. (2022).

This data set can be described thus: yeast display, Sf9 membrane polyspecificity reagent, FACS + sequencing; frameworks hold sequencing errors. The gist of the method:
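Polyreactivity labels are assigned by the sorting gate from which each nanobody was recovered. The gates were low and high (top ~1%), set on anti-HA fluorescence for expression and streptavidin fluorescence for reagent binding. Before sorting, galactose-induced (36–48 hours) yeast display cells were stained for 1 hour at 4 °C with 10% biotinylated, detergent-solubilized Sf9 membrane reagent.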
Take “QVQLVESGGGLVQAGGSLRLSCAASGSTFINYAMGWYRQAPGKERELVAAISKGGGSTYYADSVKGRFTISRDNAKNTVYLQMTSLKPEDTAVYYCAATGRAGAGKRKYEYWGQGTQVTVSS”: the “polyreactivity (PSR sort gate)” value is “high polyreactivity”. With “QVQLVESGGGLVQAGGSLRLSCAASGSTFIQYAMGWYRQAPGKERELVATIRWIGGSTYYADSVKGRFTISRDNAKNTVYLQMNSLKPEDTAVYYCAAGYEYVENGVDWYEYDYWGQGTQVTVSS” the entry was “low polyreactivity”; with “QVQLVESGGGLVQAGGSLRLSCAASGSTFIWNAMGWYRQAPGKVRELVAAISSGGSTYYADSVKGRFTISRDNAKNTVYLQMNSLKPEDTAVYYCAAEYVYNVSEQRYAVYSTDDYWGQGSQVTVSS”, “low polyreactivity”.

As for “QVQLVESGGGLVQAGGSLRLSCAASGSTFIYNAMGWYRQAPGKERELVAAITWNGGSTYYADSVKGRFTISRDNAKNTVYLQMNSLKPEDTAVYYCAVDKGSQPHYDYWGQGTQVTVSS”, the “polyreactivity (PSR sort gate)” value is recorded as “low polyreactivity”. Then “QVQLVESGGGLVQAGGSLRLSCAASGSTFIYYAMGWYRQAPGKERELVASISRSGGSTYYADSVKGRFTISRDNAKNTVYLQMNSLKPEDTAVYYCAAVGWTYEYWEWYDYWGQGTQVTVSS”, with “high polyreactivity”; and “QVQLVESGGGLVQAGGSLRLSCAASGSTFIYYTMGWYRQAPGKERELVAAIPSSGGSTYYADSVKGRFTISRDNAKNTVYLQMNSLKPEDTAVYYCADDGTYIKFAKLYRRYDYWGQGTQVTVSS”, with “low polyreactivity”. With “QVQLVESGGGLVQAGGSLRLSCAASGSTFKAYAMGWYRQAPGKERELVAAITRRGTSTYYADSVKGRFTISRDNAKNTDYFQMNRLKPEDTAVFYCNAKYVSDRSSAVSFDYWVQGTQVTVSS” the entry was “low polyreactivity”. With “QVQLVESGGGLVQAGGSLRLSCAASGSTFKAYAMGWYRQAPGKERELVAAITRRGTSTYYADSVKGRFTISRDNAKNTVYLQMNSLNPEDTAVYYCNAKYVSDRSSAVSFDYWGQGTQVTVSS” the entry was “low polyreactivity”; with “QVQLVESGGGLVQAGGSLRLSCAASGSTFKAYAMGWYRQAPGKEWELVAAISASGGTTYYADSVKGRFTISRDNAKNTVYLQLKSLKPEDTAVYYCNARHPYTGGRRYPYTRYGYWGQGTQVTVSS”, “high polyreactivity”; with “QVQLVESGGGLVQAGGSLRLSCAASGSTFKLYAMGWYRPAPGKERELVAAISYRGGTTYYADSVKGRFTISRDNAKNSVYLQMNSLKPEDTAVYYCAAGWRPRYLRDASKYDYWGQGTQVTVSS”, “low polyreactivity”. For the sequence “QVQLVESGGGLVQAGGSLRLSCAASGSTFKLYAMGWYRPAPGKERELVAAITSNCGRTYYADSVKGRFTISRDIAKNTVYLQMNSLKPEDTAVYYCAARRYAPAGGYDYWGQGTQVTVSS”, the “polyreactivity (PSR sort gate)” value was “high polyreactivity”. With “QVQLVESGGGLVQAGGSLRLSCAASGSTFKNNAMGWYRQAPGKEREFVASISKRGGSTYYADSVKGRFTISRDNAKNTVYLQMNSLKPEDTAVYYCGKTYWSYGWSHGDYGEFDYWGQGSQVTVSS” the entry was “high polyreactivity”; with “QVQLVESGGGLVQAGGSLRLSCAASGSTFKPNVMGWSRLAPGKERELVAAITSTDDPTYYADSVKGRFSISRDNAKNTVYLQMNSLKPEDTAVDYCAVESLRDDFEYDYWGQGTQVTVSS”, “low polyreactivity”. Then “QVQLVESGGGLVQAGGSLRLSCAASGSTFKRYAMAWYREGPGKEMDLVASISRSGCSTYYADSVKGRFTISRDNAKNSVYLQMNSLIPEDTAVYYCASRGFSFSFSYPSYDYWGQGTQVTVSS”, with “high polyreactivity”. Then “QVQLVESGGGLVQAGGSLRLSCAASGSTFKRYAMGWYRQAPAKERELVASISSGGSTNYADSVKGRFTISRDNAKNTVYLQMNSLKPEDTAVYYCNAVYYCYKGDYWGQGTQVTVSS”, with “high polyreactivity”; and “QVQLVESGGGLVQAGGSLRLSCAASGSTFKRYAMGWYRQAPGKERELVAAIRRGGITNYADSVKGRFTISRDNAKNTVYLQINSLKPEDTAVYYWAATSIYSNYYREGYWGQGTQVTVSS”, with “low polyreactivity”. Turning to “QVQLVESGGGLVQAGGSLRLSCAASGSTFKRYAMGWYRQAPGKERELVAAISLSSGSTYYADSVKGRFTISRDNAKNTVYLQMNSLKPEDTAVYYCNAAKTYPDVYEYDYWGQGTQVTVSS”, the “polyreactivity (PSR sort gate)” value was “high polyreactivity”. With “QVQLVESGGGLVQAGGSLRLSCAASGSTFKRYAMGWYRQAPGKERELVAANSASGGSTSYADSVKGRFTISRDNAKITVYLQMNSLTPEDTAVYYCAPYYWLYSSSYDYWGQGTQVTVSS” the entry was “high polyreactivity”; with “QVQLVESGGGLVQAGGSLRLSCAASGSTFKTYAMGWYRQAPGKERELVAAITSSGGRTYYADSVKGRFTISRDNAKNTVYLQMNSLKPEDTAVYYCAAVRRSYNQLDYWGQGTQVTVSS”, “high polyreactivity”; with “QVQLVESGGGLVQAGGSLRLSCAASGSTFKTYTMGWYRQAPGKERELVAGITSGGSTSYADSVKGRFTISRDNAKNTVYLQMNSLKPEDTAVYYCAADTSYDSYEYWGQGTQVTVSS”, “low polyreactivity”. With “QVQLVESGGGLVQAGGSLRLSCAASGSTFKVNAMGWYRQAPGKERELVAAISRGGSTYADSVKGRFTISRDNAKNTVYFQINSLKPEDTAVYYCAAKSRYFQPDEYYYWGQGTQVTVSS” the entry was “high polyreactivity”. With “QVQLVESGGGLVQAGGSLRLSCAASGSTFKVYAMGWYRQAPGKERELVATISKSGSTYADSVKGRFTISRDNAKNTVYLQMNSLKPEDTAVYYCAADLYTYPRTRRRAYGYWGQGTQVTVSS” the entry was “high polyreactivity”. As to “QVQLVESGGGLVQAGGSLRLSCAASGSTFKWYTMGWYRQAPGNEREFVAAISSSGGRTYYADSVKGRFTISRDNAKNTDYLQMNCLKPEDTAVYFCAAGYLYQFRAATFGYWGQGTQVTVSS”, the “polyreactivity (PSR sort gate)” value is on record as “high polyreactivity”. In the case of “QVQLVESGGGLVQAGGSLRLSCAASGSTFKYYAMGWYRQAPGKERELVAAISSGGSTYYADSVKGRFTISRDNAKNTVYLQMNSLKPEDTAVYYCAARGYYGKFSGSGYWGQGTQVTVSS”, the “polyreactivity (PSR sort gate)” value is recorded as “high polyreactivity”. Consider “QVQLVESGGGLVQAGGSLRLSCAASGSTFKYYAMGWYRQAPGKERELVASITSGGSTYYADSVKGRFTISRDNAKNTVYLQMNSLKPEDTAVYYCNKRWITSYYTRYDYWGQGTQVTVSS”, for which the “polyreactivity (PSR sort gate)” value is reported as “high polyreactivity”. Then “QVQLVESGGGLVQAGGSLRLSCAASGSTFKYYGMGWYRQAPGKERELVASISSSGTRTYYADSVKGRFTISRDNAKYTVYLQMNSLKPEDTAVYYCAADSYATYFLYDSWGQGTQVTVSS”, with “low polyreactivity”. With “QVQLVESGGGLVQAGGSLRLSCAASGSTFKYYVMGWYRQAPGKERELVAAISGRTGSTYYADSVKGRFTISRDNAKNTVYLQMNSLKPEDTAVYYCAKRGFLYWDHVSGFYRYDYWGQGTQVTVSS” the entry was “low polyreactivity”; with “QVQLVESGGGLVQAGGSLRLSCAASGSTFLAYTMGWYRQAPEKERELVADNTSNGGSTYYADSVKGRFTISRDNAKNTVYLQMNSLKPEDTAVYYCNTGSGAGITRPDDDFNYWGQGTQVTVSS”, “low polyreactivity”; with “QVQLVESGGGLVQAGGSLRLSCAASGSTFLDNAMGWYRQAPGKERELVAVITASDTNTNYADSVKGRFTISRDNAKNTVYLQMNRLKPEDTAVYYCNADATYTSYDYWGQGTQVTVSS”, “low polyreactivity”. For the sequence “QVQLVESGGGLVQAGGSLRLSCAASGSTFLGNAMGWYRQAPGKERELVATITGSSGSTYYADSVKGRFTISRDNAKNTVYLQMNSLKPEDTAVYYCNTVYNYWDGYDYWGQGSQVTVSS”, the “polyreactivity (PSR sort gate)” value is “low polyreactivity”. Then “QVQLVESGGGLVQAGGSLRLSCAASGSTFLGYAMGWYRQAPGKERELVAAITYSGGGTYYADSVKGRFTISRDNAKNTVYLQMNSLKPEDTAVYYCNADVSWSYSVYREYGMDYWGQGTQVTVSS”, with “low polyreactivity”; and “QVQLVESGGGLVQAGGSLRLSCAASGSTFLGYTMGWYRQAPGKERELVASITNSGSTDYADSVKGRFTISRDNAKNTVYLHMNSLKPEDTAVYYCAAQFYRYPSKNDYWGQGTQVTVSS”, with “high polyreactivity”. In the case of “QVQLVESGGGLVQAGGSLRLSCAASGSTFLINAMGWYRQAPRKERELVATISSGGSTYYADSVKGRFTISRDNAKNTVYLQMNSLKPEDTAVYSCAADPDRTAYDYWGQGTQVTVSS”, the “polyreactivity (PSR sort gate)” value is recorded as “low polyreactivity”.

As to “QVQLVESGGGLVQAGGSLRLSCAASGSTFLKYTMGWYRQAPRKDRELVAGITRSSRSTYYADSVKGRFTISRDNAKYTVYLQMNSLKPEDTAVYYCAATVYLYTDLAYYWFGYWGQGTQVTVAS”, the “polyreactivity (PSR sort gate)” value is listed as “high polyreactivity”. Regarding “QVQLVESGGGLVQAGGSLRLSCAASGSTFLLNAMGWYRQAPGKERELVAAITWNGGSTYYADSVKGRFTISRDNAKNTVYLQMNSLKPEDTAVYYCAADWSWQWRYGYDYWGQGTQVTVSS”, the “polyreactivity (PSR sort gate)” value is on record as “low polyreactivity”. Then “QVQLVESGGGLVQAGGSLRLSCAASGSTFLNNAMGWYRQAPGKERELVASIRYSSARTYYADTVKGRFTISRDNAKNTVYLQMNSLKPEDTAVYYCAADRWVGYRVYKYDYWGQGTQVTVSS”, with “high polyreactivity”; and “QVQLVESGGGLVQAGGSLRLSCAASGSTFLPNAMGWYRQAPGKERELVATITFDGGSTYYADSVKGRFTISRDNAKNTVYLQMNSLKPEDTAVYYCNTVELYWRGYDYWGQGTQVTVSS”, with “high polyreactivity”; and “QVQLVESGGGLVQAGGSLRLSCAASGSTFLRYAMGWARQAPGKERELVARISGGGTTYYADSVKGRFTISRDNAKNTVYLQMNSLKPEDTAVYYCAARAIYWSRYDYWGQGTQVTVSS”, with “high polyreactivity”.

“QVQLVESGGGLVQAGGSLRLSCAASGSTFLSYAMGWYRQAPGHERELVAAISIAGSTYYADSVKGRFTISRANAKNTVYLQMHSLKPEDTAVDYCRRYYRIYDYWGQGTQVTVSS”: the “polyreactivity (PSR sort gate)” value is listed as “low polyreactivity”.

With “QVQLVESGGGLVQAGGSLRLSCAASGSTFLSYAMGWYRQAPGKERELVAAISWSGGRTYYADSVKGRFTISRDNAKNTVYLQMNSLKPEDTAVYYCAARHVPFTKHEYEYWGQGTQVTVSS”, the “polyreactivity (PSR sort gate)” value was “low polyreactivity”.
